The target in this assay is human BCMA (huBCMA), full length, on cells (human) (UniProt Q02223). Description: cell-based or functional assay.
human BCMA (huBCMA), full length, on cells (human), sequence (Q02223 whole entry N81S): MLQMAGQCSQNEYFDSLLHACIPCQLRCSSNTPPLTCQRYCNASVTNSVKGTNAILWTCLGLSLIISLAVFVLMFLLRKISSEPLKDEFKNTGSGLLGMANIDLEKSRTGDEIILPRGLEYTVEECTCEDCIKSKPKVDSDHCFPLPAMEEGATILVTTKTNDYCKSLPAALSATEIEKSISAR

B1: 29C12-MCC-DM1 (antibody drug conjugate) (protein)
VH: EVQLLESGGALVQPGGSLRLSCAASGFTFSSYAMNWVRQAPGKGLEWVSAISVGGDTYYADSVKGRFTISRDNSKNTLYLQMNSLRAEDTAVYYCAKDQVTMVRGVWYYYGLDVWGQGTTVTVSS
VL: DIVMIQSPLSLPVTPGEPASISCRSSQSLLHSNGNNYLDWYLQKPGQSPHLLISLGSNRTSGVPDRFSGSGSGTDFTLKISRVEAEDVGVYYCMQALQPPRRFGQGTKLEIKR
Molecule B1 displayed an H929 cell growth inhibition IC50 (CellTiter-Glo, 96 h) of 0.39 nM.

These data come from patent US20170165373A1.
